{"source": "paper PMC4636054", "biological_target": "LlaBIII (UniProt A0A0M3KL05 1-1578)", "test": "X-ray crystallography", "data": [{"binder": "LlaBIII 28 bp DNA (dsDNA) DNA 1: GCTCTAGCTAATAGACTGAGCCGAGGTG DNA 2: CACCTCGGCTCAGTCTATTAGCTAGAGC", "values": [{"measurement": "binding result", "result": "binds"}]}]}
